B1: sdAb10 (VHH)
VHH: EVQLVESGGGLVQPGGSLRLSCAASGNTFPARTMSWVRQAPGKGLELVASIGPGRSTIYADSVKGRFTISRDNSKNTLYLQMNSLRAEDTAVYYCAVAYTSGLALRGSFSYWGQGTLVTVSS
B2: sdAb42 (VHH)
VHH: EVQLVESGGGLVQPGGSLRLSCAASGNTSTRHPMSWVRQAPGKGLELVASIGRGEITYYADSVKGRFTISRDNSKNTLYLQMNSLRAEDTAVYYCAVDAVFGGRHSHWGQGTLVTVSS
B3: sdAb12 (VHH)
VHH: EVQLVESGGGLVQPGGSLRLSCAASGNTFPARTMSWVRQAPGKGLELVASIGRGEITYYADSVKGRFTISRDNSKNTLYLQMNSLRAEDTAVYYCAAPAHGSWMSRRPHIYWGQGTLVTVSS
B4: sdAb39 (VHH)
VHH: EVQLVESGGGLVQPGGSLRLSCAASGNTSTRHPMSWVRQAPGKGLELVASIGRGEITYYADSVKGRFTISRDNSKNTLYLQMNSLRAEDTAVYYCAAFVDFLSRHNSRRPYPHGYWGQGTLVTVSS
B5: sdAb38 (VHH)
VHH: EVQLVESGGGLVQPGGSLRLSCAASGNTSTRHPMSWVRQAPGKGLELVASIGRGEITYYADSVKGRFTISRDNSKNTLYLQMNSLRAEDTAVYYCAVCLRSVFVNCHNFAYWGQGTLVTVSS

Target: SARS-CoV-2 S protein receptor-binding domain (R319-F541) (SARS-CoV-2, UniProt P0DTC2 319-541)
Assay: ELISA

In order of falling EC50:
1. B3  60.1 nM
2. B5  46.1 nM
3. B1  22.2 nM
4. B4  4.3 nM
5. B2  2 nM

From paper PMC10865538 (2024)
